Source: patent publication US20220213225A1 (INVENRA, published 2022)
Each block holds one binder with its values, some of them ahead of it.

Legend:
[1] = molecular target: T1, CTLA4 (antigen immobilised on the biosensor) (human, UniProt P16410 36-161, biotinylated in Examples 30 and 35); experiment: Octet biolayer interferometry; antigen immobilised, B-Body as analyte
T1 construct: also called hCTLA4; biotinylated human CTLA4

[2] = molecular target: T1, CTLA4 (antigen immobilised on the …); experiment: BLI steady state analysis, biotinylated CTLA4 on streptavidin sensor, two-fold dilutions of the binding molecule from 2 µM to 31.25 nM; monovalent

T1 sequence (P16410 36-161 limits assumed): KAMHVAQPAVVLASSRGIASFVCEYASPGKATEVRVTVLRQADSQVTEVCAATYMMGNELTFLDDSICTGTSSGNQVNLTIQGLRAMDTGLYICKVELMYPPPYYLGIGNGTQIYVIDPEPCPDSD

B1: bivalent bispecific B-Body “BC1” (PD1 x Antigen A) (bispecific antibody)
chain 1: not shown
chain 2: EVQLVESGGGLVQPGGSLRLSCAASGFTFSDYDIHWVRQAPGKGLEWVGDITPYDGTTNYADSVKGRFTISADTSKNTAYLQMNSLRAEDTAVYYCARLVGEIATGFDYWGQGTLVTVSSASPREPQVYTDPPSRDELTKNQVSLTCLVKGFYPSDIAVEWESNGQPENNYKTTPPVLDSDGSFFLYSKLTVDKSRWQQGNVFSCSVMHEALHNHYTQKSLSLSGEC
chain 3: not shown
chain 4: QVQLVESGGGVVQPGRSLRLDCKASGITFSNSGMHWVRQAPGKGLEWVAVIWYDGSKRYYADSVKGRFTISRDNSKNTLFLQMNSLRAEDTAVYYCATNDDYWGQGTLVTVSSASTKGPSVFPLAPSSKSTSGGTAALGCLVKDYFPEPVTVSWNSGALTSGVHTFPAVLQSSGLYSLSSVVTVPSSSLGTQTYICNVNHKPSNTKVDKKVEPPKSC
notes: Chains 1+2 form the Antigen A site, chains 3+4 the PD1 site (nivolumab variable domains)
binding result [1]: no binding (tested: not given on the sheet)

Kd [2]: 19 nM
B2: BC1 1×1 B-Body SNIPER 19×8 binding molecule (CTLA4-19 x CD25-8) (bispecific antibody)
chain 1: not shown
chain 2: EVQLVESGGGLVQPGGSLRLSCAASGFTFSGYWIHWVRQAPGKGLEWVAAITSRDSYTYYADSVKGRFTISADTSKNTAYLQMNSLRAEDTAVYYCARGSYLGSAFDYWGQGTLVTVSSASPREPQVYTDPPSRDELTKNQVSLTCLVKGFYPSDIAVEWESNGQPENNYKTTPPVLDSDGSFFLYSKLTVDKSRWQQGNVFSCSVMHEALHNHYTQKSLSLSGEC
chain 3: SDIQMTQSPSSLSASVGDRVTITCRASQSVSSAVAWYQQKPGKAPKLLIYSASSLYSGVPSRFSGSRSGTDFTLTISSLQPEDFATYYCQQYSSQPATFGQGTKVEIKRTVAAPSVFIFPPSDEQLKSGTASVVCLLNNFYPREAKVQWKVDNALQSGNSQESVTEQDSKDSTYSLSSTLTLSKADYEKHKVYACEVTHQGLSSPVTKSFNRGECDKTHTCPPCPAPELLGGPSVFLFPPKPKDTLMISRTPEVTCVVVDVSHEDPEVKFNWYVDGVEVHNAKTKPREEQYNSTYRVVSVLTVLHQDWLNGKEYKCKVSNKALPAPIEKTISKAKGQPREPQVCTLPPSREEMTKNQVSLSCAVKGFYPSDIAVEWESNGQPENNYKTTPPVLDSDGSFFLVSKLTVDKSRWQQGNVFSCSVMHEALHNHYTQKSLSLSPGK
chain 4: EVQLVESGGGLVQPGGSLRLSCAASGFTFSSYYIHWVRQAPGKGLEWVAKIQPKGGYTYYADSVKGRFTISADTSKNTAYLQMNSLRAEDTAVYYCARSYYYRPHAFDYWGQGTLVTVSSASTKGPSVFPLAPSSKSTSGGTAALGCLVKDYFPEPVTVSWNSGALTSGVHTFPAVLQSSGLYSLSSVVTVPSSSLGTQTYICNVNHKPSNTKVDKKVEPPKSC
